Assay results as given in patent publication US7084111 (UNIVERSITY OF FLORIDA RESEARCH FOUNDATION, dated 2006).
Bridges are numbered along the chain shown (N, C = ends). Where no end group is shown, it is not given here. [ ]: non-standard residue; d: D form. Nle = CCCC[C@H](N)C(=O)O; Dap = NC[C@H](N)C(=O)O

Columns and labels:
Assay in all cases: cell-based or functional assay
[1] = biological target: mouse melanocortin-3 receptor (mouse, UniProt P33033 1-323)
[2] = biological target: mouse melanocortin-4 receptor (mouse, UniProt P56450 1-332)
Sequence of mouse melanocortin-4 receptor (P56450 whole entry): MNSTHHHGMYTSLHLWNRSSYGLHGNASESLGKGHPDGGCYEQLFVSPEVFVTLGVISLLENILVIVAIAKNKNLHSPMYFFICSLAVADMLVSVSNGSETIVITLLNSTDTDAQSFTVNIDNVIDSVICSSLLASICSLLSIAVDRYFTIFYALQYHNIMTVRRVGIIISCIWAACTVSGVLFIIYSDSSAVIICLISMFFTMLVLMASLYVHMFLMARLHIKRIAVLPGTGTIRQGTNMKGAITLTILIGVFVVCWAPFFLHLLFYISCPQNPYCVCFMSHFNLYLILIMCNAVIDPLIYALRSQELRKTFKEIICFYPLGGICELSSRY

[3] = biological target: mouse melanocortin-5 receptor (mouse, UniProt P41149 1-325)
Sequence of mouse melanocortin-5 receptor (P41149 whole entry): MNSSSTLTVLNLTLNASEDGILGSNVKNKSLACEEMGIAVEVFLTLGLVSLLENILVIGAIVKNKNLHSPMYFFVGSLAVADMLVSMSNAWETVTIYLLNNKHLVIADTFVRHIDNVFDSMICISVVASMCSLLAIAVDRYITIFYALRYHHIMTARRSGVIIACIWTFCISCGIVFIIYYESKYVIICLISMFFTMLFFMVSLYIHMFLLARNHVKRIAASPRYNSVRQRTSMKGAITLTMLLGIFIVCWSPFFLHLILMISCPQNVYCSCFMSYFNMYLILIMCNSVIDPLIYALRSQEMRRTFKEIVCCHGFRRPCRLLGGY

[4] = biological target: mouse melanocortin-1 receptor (mouse, UniProt Q01727 1-315)
Sequence of mouse melanocortin-1 receptor (Q01727 whole entry): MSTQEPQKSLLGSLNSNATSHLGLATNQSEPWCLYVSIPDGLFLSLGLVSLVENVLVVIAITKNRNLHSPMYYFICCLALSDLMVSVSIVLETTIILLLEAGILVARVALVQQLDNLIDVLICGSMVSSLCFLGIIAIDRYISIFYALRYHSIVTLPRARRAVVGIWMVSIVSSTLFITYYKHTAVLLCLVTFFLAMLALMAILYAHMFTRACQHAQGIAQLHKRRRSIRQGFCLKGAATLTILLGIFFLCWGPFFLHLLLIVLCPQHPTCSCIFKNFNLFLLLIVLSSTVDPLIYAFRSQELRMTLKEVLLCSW

Sequence of mouse melanocortin-3 receptor (P33033 whole entry): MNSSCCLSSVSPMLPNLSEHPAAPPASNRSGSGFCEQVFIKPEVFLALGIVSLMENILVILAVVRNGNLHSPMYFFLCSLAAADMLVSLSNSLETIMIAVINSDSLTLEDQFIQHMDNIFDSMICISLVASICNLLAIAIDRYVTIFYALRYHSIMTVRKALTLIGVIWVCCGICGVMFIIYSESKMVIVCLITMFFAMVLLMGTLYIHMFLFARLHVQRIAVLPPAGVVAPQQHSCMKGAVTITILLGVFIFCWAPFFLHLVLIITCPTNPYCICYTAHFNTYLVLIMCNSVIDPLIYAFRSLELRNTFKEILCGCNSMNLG

Binder	EC50 (agonist) [1] [µM]	EC50 (agonist) [2] [µM]	EC50 (agonist) [3] [µM]	EC50 (agonist) [4] [µM]	pA2 (antagonist) [1]	pA2 (antagonist) [2]	pA2 (antagonist; Partial agonist) [2]	EC50 (agonist; Partial agonist) [1] [µM]	pA2 (antagonist; Partial agonist) [1]
YDHXKWNAFXY (Asp-Dpr side chain lactam bridge; Dpr; DPhe; C-terminal amide (amide resin)) [SEQ ID NO:37 (Tyr-c[Asp-His-DPhe-Lys-Trp-Asn-Ala-Phe-Dpr]-Tyr)]	30.8	8.6	0.8	0.68					
YDRFFNAF[Dap]Y-NH2 (lactam 2-9) [SEQ ID NO:3 (Tyr-c[Asp-Arg-Phe-Phe-Asn-Ala-Phe-Dpr]-Tyr)]			> 100		5.7	5.9			
YDHXRWNAFXY (Asp-Dpr side chain lactam bridge; Dpr; DBip; C-terminal amide (amide resin)) [SEQ ID NO:35 (Tyr-c[Asp-His-DBip-Arg-Trp-Asn-Ala-Phe-Dpr]-Tyr)]	0.033	0.00057	0.00527	0.00387					
YDWR[dF]NAF[Dap]Y-NH2 (lactam 2-9; N-terminus assumed; SMILES C[C@@H]1NC(=O)[C@H](CC(N)=O)NC(=O)[C@@H](Cc2ccccc2)NC(=O)[C@H](CCCNC(=N)N)NC(=O)[C@H](Cc2c[nH]c3ccccc23)NC(=O)[C@@H](NC(=O)[C@@H](N)Cc2ccc(O)cc2)CC(=O)NC[C@@H](C(=O)N[C@@H](Cc2ccc(O)cc2)C(N)=O)NC(=O)[C@H](Cc2ccccc2)NC1=O) [SEQ ID NO:5 (Tyr-c[Asp-Trp-Arg-DPhe-Asn-Ala-Phe-Dpr]-Tyr)]		10.9	2.22	6.12					
YDHXRWNAFXY (Asp-Dpr side chain lactam bridge; Dpr; DNal(2′); C-terminal amide (amide resin)) [SEQ ID NO:33 (Tyr-c[Asp-His-DNal(2′)-Arg-Trp-Asn-Ala-Phe-Dpr]-Tyr)]			0.0223	0.00556	8.3		9.3		
YDHARWNAF[Dap]Y-NH2 (lactam 2-10; N-terminus assumed; SMILES C[C@@H]1NC(=O)[C@H](CC(N)=O)NC(=O)[C@H](Cc2c[nH]c3ccccc23)NC(=O)[C@H](CCCNC(=N)N)NC(=O)[C@H](C)NC(=O)[C@H](Cc2c[nH]cn2)NC(=O)[C@@H](NC(=O)[C@@H](N)Cc2ccc(O)cc2)CC(=O)NC[C@@H](C(=O)N[C@@H](Cc2ccc(O)cc2)C(N)=O)NC(=O)[C@H](Cc2ccccc2)NC1=O) [SEQ ID NO:25 (Tyr-c[Asp-His-Ala-Arg-Trp-Asn-Ala-Phe-Dpr]-Tyr)]		14.7	0.69	14				30.3	
Ac-[Nle]DH[dR]FFK-NH2 (lactam 2-7) [SEQ ID NO:21 (Ac-Nle-c[Asp-His-DArg-Phe-Phe-Lys])]	> 100	> 100	> 100	> 100					
YD[dF]RWNAF[Dap]Y-NH2 (lactam 2-9) [SEQ ID NO:7 (Tyr-c[Asp-DPhe-Arg-Trp-Asn-Ala-Phe-Dpr]-Tyr-NH2)]		0.45	0.124	4.85					
YDAXRWNAFXY (Asp-Dpr side chain lactam bridge; Dpr; DPhe; C-terminal amide (amide resin)) [SEQ ID NO:24 (Tyr-c[Asp-Ala-DPhe-Arg-Trp-Asn-Ala-Phe-Dpr]-Tyr)]	0.029	0.00036	0.00046	0.0072					
YDHPRWNAF[Dap]Y-NH2 (lactam 2-10; N-terminus assumed; SMILES C[C@@H]1NC(=O)[C@H](CC(N)=O)NC(=O)[C@H](Cc2c[nH]c3ccccc23)NC(=O)[C@H](CCCNC(=N)N)NC(=O)[C@@H]2CCCN2C(=O)[C@H](Cc2c[nH]cn2)NC(=O)[C@@H](NC(=O)[C@@H](N)Cc2ccc(O)cc2)CC(=O)NC[C@@H](C(=O)N[C@@H](Cc2ccc(O)cc2)C(N)=O)NC(=O)[C@H](Cc2ccccc2)NC1=O) [SEQ ID NO:31 (Tyr-c[Asp-His-Pro-Arg-Trp-Asn-Ala-Phe-Dpr]-Tyr)]	13.2	16.7	7.9	10.3					
Ac-SYS[Nle]EHRF[dF]GKPV-NH2 (SMILES CCCC[C@H](NC(=O)[C@H](CO)NC(=O)[C@H](Cc1ccc(O)cc1)NC(=O)[C@H](CO)NC(C)=O)C(=O)N[C@@H](CCC(=O)O)C(=O)N[C@@H](Cc1c[nH]cn1)C(=O)N[C@@H](CCCNC(=N)N)C(=O)N[C@@H](Cc1ccccc1)C(=O)N[C@H](Cc1ccccc1)C(=O)NCC(=O)N[C@@H](CCCCN)C(=O)N1CCC[C@H]1C(=O)N[C@H](C(N)=O)C(C)C) [SEQ ID NO:18 (Ac-Ser-Tyr-Ser-Nle-Glu-His-Arg-Phe-DPhe-Gly-Lys-Pro-Val)]	> 100	> 100		3.63					
YDHXAWNAFXY (Asp-Dpr side chain lactam bridge; Dpr; DPhe; C-terminal amide (amide resin)) [SEQ ID NO:26 (Tyr-c[Asp-His-DPhe-Ala-Trp-Asn-Ala-Phe-Dpr]-Tyr)]	23.8	0.0325	0.00206	0.0665					
YDHXRXNAFXY (Asp-Dpr side chain lactam bridge; Dpr; DPhe; DNal(2′); C-terminal amide (amide resin)) [SEQ ID NO:40 (Tyr-c[Asp-His-DPhe-Arg-DNal(2′)-Asn-Ala-Phe-Dpr]-Tyr)]	0.0065	0.00067	0.00095	0.0002					
YDHXRXNAFXY (Asp-Dpr side chain lactam bridge; Dpr; DPhe; Tic; C-terminal amide (amide resin)) [SEQ ID NO:42 (Tyr-c[Asp-His-DPhe-Arg-Tic-Asn-Ala-Phe-Dpr]-Tyr)]	3.4	0.26	0.0427	0.0216					
YDFXRWNAFXY (Asp-Dpr side chain lactam bridge; Dpr; DPhe; C-terminal amide (amide resin)) [SEQ ID NO:29 (Tyr-c[Asp-Phe-DPhe-Arg-Trp-Asn-Ala-Phe-Dpr]-Tyr)]		0.00064	0.00315	0.00604					7.2
